Here are results for one molecule from article PMC9228142, “Going Retro, Going Viral: Experiences and Lessons in Drug Discovery from COVID-19”.

This series concerns the target nsp12 (RdRp catalytic subunit);nsp7;nsp8 (SARS-CoV-2;SARS-CoV-2;SARS-CoV-2, UniProt P0DTD1;P0DTD1;P0DTD1 4393-5324;3860-3942;3943-4140, ||). Put plainly: EMSA. The settings on record: protein: recombinant;recombinant;recombinant; tags: untagged (SUMO fusion cleaved, Ni2+-NTA and SEC purified);;; copies: 1;1;2; label: 5'-Cyanine 5.5.

B1: GA1 RNA scaffold (structured_RNA)
RNA: AAAAGAAAAGACGCGUAGUUUUCUACGCG
With B1, the binding result is listed as “binds”.
